This is an account of results in the supplement of paper PMC10567573.

± gives the standard deviation.

The nature of the data set: protein stability index of a GFP-peptide fusion (GPS, HEK-293T) (PSI 1-6); higher = more stable.
The mark [1] stands for this setting: treatment: DMSO, c terminus: a fixed tail appended.
Where [2] appears, read: treatment: MLN4924 1 uM, 8 h, c terminus: a fixed tail appended.
Where [3] appears, read: treatment: DMSO, c terminus: native.
Where [4] appears, read: treatment: MLN4924 1 uM, 8 h, c terminus: native.
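Also: 24-mer peptide tiles fused after GFP, lentivirally expressed, FACS-sorted into six equal bins by GFP/DsRed ratio, decoded by Illumina sequencing, PSI is the read-weighted mean bin number.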

As to RSQKHKERIRLLRQKREAAARKKY [C18orf25], the protein stability index runs as follows: under setting [1], 4.17 ± 0.34; under setting [2], 4.36 ± 0.31.
On to RSRREQFSRAPVSALPLAPNHLGG [STX5], for which the protein stability index reads like this: under setting [1], 3.46 ± 0.15; under setting [2], 3.77 ± 0.31.
RSVRVRLLLSFWKETDPLTFNFIS [PLD5] yielded a protein stability index under setting [1] of 2.89 ± 0.71 and a protein stability index under setting [2] of 2.54 ± 0.18.
RTITFEQFQEALEELAKKRFKDKS [TPPP]: the protein stability index is, setting by setting: under setting [1], 2.54 ± 0.11; under setting [2], 2.74 ± 0.43.
For the sequence RVFLFQAPSKEEMLSWILRINLVA [PSD2], the protein stability index was 2.64 ± 0.54 under setting [1] and 2.7 ± 0.46 under setting [2].
Regarding RVIKCDPDCLRACQEQIEALLESS [CCND1], the protein stability index is, setting by setting: under setting [1], 3.3 ± 0.3; under setting [2], 3.19 ± 0.2.
For the sequence RVMPTQEVQELPIPSKLLEFLSYR [WSB1], the protein stability index by setting is: under setting [1], 2.94 ± 0.26; under setting [2], 2.95 ± 0.24.
Consider RVQAALVWERPARSALWCLGLNAA [RETREG3], for which the protein stability index is 2.1 ± 0.71 under setting [1] and 2.38 ± 0.14 under setting [2].
In the case of RVRRFQVVEVTKGILEHVDSASPV [M1AP], the protein stability index is 3.36 ± 0.2 under setting [1] and 3.37 ± 0.17 under setting [2].
With RYLGRPPSPTSPPPPELMDVSLVG [DYRK1B], the protein stability index is, setting by setting: under setting [1], 3.98 ± 0.26; under setting [2], 4.07 ± 0.29.
SAAGIEARSRALRRRWCPAGIMLL [SPACA3] registered a protein stability index under setting [1] of 2.3 ± 0.11 and a protein stability index under setting [2] of 2.38 ± 0.15.
Consider SAAVPAGQTYVDAGYEVDKIAQNL [CHIT1], for which the protein stability index amounted to 4.39 ± 0.3 under setting [1] and 4.61 ± 0.46 under setting [2].
The sequence SALPLAPNHLGGGAVVLGAESHAS [STX5] yielded a protein stability index under setting [1] of 4.22 ± 0.32 and a protein stability index under setting [2] of 4.32 ± 0.53.
Take SAQRSKDPNSQVGACIVNSENKIV [DCTD]: the protein stability index was 4.91 ± 0.17 under setting [1] and 4.98 ± 0.12 under setting [2].
In the case of SASVIFEGVDIKNGTEDLPYAMKP [NSDHL], the protein stability index was determined as 4.39 ± 0.12 under setting [1] and 4.28 ± 0.26 under setting [2].
With SCNDSKLEFRSFWELIGEAAKSVK [S100A14], the protein stability index is, setting by setting: under setting [1], 2.18 ± 0.21; under setting [2], 2.11 ± 0.52.
As to SCTTRLCQEEQLRSHENKLRQLTA [PSD2], the protein stability index was 3.6 ± 0.22 under setting [1] and 3.79 ± 0.33 under setting [2].
With SDLFRLQEYNIPGVIQSVIGWKTV [CDS2], the protein stability index reads like this: under setting [1], 2.28 ± 0.26; under setting [2], 2.1 ± 0.28.
With SDLFSLAEEYEDSSTKPPKSRRKA [INTS3], the protein stability index under setting [1] came out at 5.15 ± 0.34 and the protein stability index under setting [2] stood at 5.33 ± 0.36.
In the case of SDNMSHLMVDFAQERQMLQALKFL [FSD1], the protein stability index stood at 2.55 ± 0.3 under setting [1] and 2.49 ± 0.23 under setting [2].
Regarding SDSESKPDQEAEPQEAAGAQGRAG [EPB41L3], the protein stability index by setting is: under setting [1], 5.54 ± 0.37; under setting [2], 5.63 ± 0.22.
Take SERAEVQRLEEQERRHREEKERRK [RSPH3]: the protein stability index was determined as 5.31 ± 0.47 under setting [1] and 5.673 ± 0.05 under setting [2].
Turning to SESSGQTHLEGDTVQIICNTGYRL [CFHR2], the protein stability index by setting is: under setting [1], 3.34 ± 0.21; under setting [2], 3.48 ± 0.38.
The corresponding values for SESTNTTIEDEDTKVRKQEIIKVT [CAMK2A] are 5.32 ± 0.24 and 5.31 ± 0.18.
In the case of SFGFPRTVKHIDAALSEENTGKTY [MMP1], the protein stability index is, setting by setting: under setting [1], 4.13 ± 0.25; under setting [2], 3.94 ± 0.16.
SFGQVVKAYDHQTQELVAIKIIKN [DYRK1B]: the protein stability index under setting [1] is 2.76 ± 0.31 and the protein stability index under setting [2] came to 2.97 ± 0.2.
Turning to SFTTNEKAILEQNFRDLVRDLEKQ [TRIM29], the protein stability index worked out at 3.97 ± 0.19 under setting [1] and 4.19 ± 0.2 under setting [2].
In turn, SGADFHKKDKCGRTPLHYAAANCH [ANKRD44] showed a protein stability index under setting [1] of 3.42 ± 0.44 and a protein stability index under setting [2] of 3.32 ± 0.27.
Sequence SGDPPLSSNVSLSLFVLDQNDNAP [PCDHGA10] returned a protein stability index under setting [1] of 3.63 ± 0.09 and a protein stability index under setting [2] of 3.59 ± 0.27.
In the case of SGPPASYCAKLCEPQWFYEETESS [C8orf76], the protein stability index is, setting by setting: under setting [1], 4.02 ± 0.12; under setting [2], 4.37 ± 0.19.
In turn, SGSAGQYGSDQQHHLGSGSGAGGT [MYOZ1] registered a protein stability index under setting [1] of 4.98 ± 0.21 and a protein stability index under setting [2] of 5.12 ± 0.29.
The corresponding values for SGTPQAGTPSPSRSRDSNSGPEEP [RTN2] are 5.35 ± 0.068 and 5.48 ± 0.28.
Take SHFSRLSEEKLALDNNASASGNAT [C10orf62]: the protein stability index by setting is: under setting [1], 5.03 ± 0.14; under setting [2], 5.13 ± 0.26.
Regarding SIKNSLKVAAISESPVAEKSAST [PTGFR], the protein stability index was 4.5 ± 0.14 under setting [3] and 4.27 ± 0.2 under setting [4].
Regarding SIMEMQAMEVNTSASEILYSAPPG [NFE2L1], the protein stability index stood at 3.81 ± 0.33 under setting [1] and 3.94 ± 0.28 under setting [2].
In the case of SKAPGSCDPGTDPCPEDASTPRPP [TLE6], the protein stability index turned out to be 5.59 ± 0.28 under setting [1] and 5.45 ± 0.081 under setting [2].
As to SKYHRFISFTLYLIGFCMFVLSLV [CDS2], the protein stability index was found to be 2.04 ± 0.36 under setting [1] and 1.86 ± 0.51 under setting [2].
The corresponding values for SLCCCCRWCCCCGERETRTPEELT [CLCN6] are 3.66 ± 0.41 and 3.88 ± 0.22.
The corresponding values for SLGRHKRTHTGEKPYTCSVCGKSF [ZNF8] are 3.2 ± 0.58 and 3.69 ± 0.6.
Consider SLKLALLFYILTFVGAIFNGLTLL [RTN2], for which the protein stability index reads like this: under setting [1], 3.88 ± 0.94; under setting [2], 3.04 ± 0.11.
Consider SLLLKKPLRVDLILENTSKVPAPK [NOP53], for which the protein stability index by setting is: under setting [1], 2.81 ± 0.16; under setting [2], 2.98 ± 0.15.
Take SLQERKQALYEYARRRFTERRAQE [AUP1]: the protein stability index under setting [1] was 4.53 ± 0.18 and the protein stability index under setting [2] came to 4.44 ± 0.21.
In the case of SLRSIEQKYKLFQQQQLTFTAALE [SPACA9], the protein stability index runs as follows: under setting [1], 2.6 ± 0.34; under setting [2], 2.73 ± 0.35.
With SLSVFTEPNRHFYREMQSFSEDI [FBXO33], the protein stability index by setting is: under setting [3], 3.26 ± 0.32; under setting [4], 3.33 ± 0.27.
With SMFSRVGGIIAPFIPSLKYVQWSL [SLC22A15], the protein stability index under setting [1] was determined as 2.54 ± 0.41 and the protein stability index under setting [2] turned out to be 2.5 ± 0.65.
As for SNGVEMAAKFPSGSQRARVVNTDH [SDE2], the protein stability index is, setting by setting: under setting [1], 4.59 ± 0.2; under setting [2], 4.58 ± 0.26.
In the case of SPPLSTEAHFMLQVADINDNPPTF [PCDHGA10], the protein stability index under setting [1] was 3.73 ± 0.17 and the protein stability index under setting [2] amounted to 3.9 ± 0.19.
On the same counts, the results for SPVAHKHLSRQKIDPLLYMTEWFM [TBC1D10A] are 2.19 ± 0.18 and 2.23 ± 0.16.
With SPVRCGGPGDASPRGCGARRAGEG [WEE1], the protein stability index runs as follows: under setting [1], 4.54 ± 0.19; under setting [2], 4.68 ± 0.095.
With SQDVSDCYLELFPAHLYFQAHGSE [PLEKHN1], the protein stability index is, setting by setting: under setting [1], 2.49 ± 0.19; under setting [2], 2.81 ± 0.4.
As to SQHRRIHSGEKPFICKECGKAYGW [ZNF232], the protein stability index is 2.67 ± 0.27 under setting [1] and 2.97 ± 0.64 under setting [2].
Consider SQKYKEGKYIIELNHMIKDNGWD [YPEL3], for which the protein stability index came to 2.94 ± 0.28 under setting [3] and 2.97 ± 0.15 under setting [4].
For the sequence SQLSMKASLENSLEETKGRYCMQL [KRT16], the protein stability index amounted to 3.44 ± 0.18 under setting [1] and 3.61 ± 0.31 under setting [2].
